Measured values published in paper PMC5477842.

Biological target: Truncated rat Eag1 (rEag1Δ; Kv10.1 with residues 773-886 removed) (rat) (UniProt Q63472)
Assay: cryo-EM structure

stoichiometry N (CaM molecules per rEag1 tetramer): 4
Substance: calmodulin (from UniProt P0DP23 1-149) (natural protein)
